T1: GST-Elp1 1-734 (Saccharomyces cerevisiae (budding yeast), UniProt Q06706 1-734)
T1 construct: also called truncated form of GST-Elp1
T1 sequence (looked up): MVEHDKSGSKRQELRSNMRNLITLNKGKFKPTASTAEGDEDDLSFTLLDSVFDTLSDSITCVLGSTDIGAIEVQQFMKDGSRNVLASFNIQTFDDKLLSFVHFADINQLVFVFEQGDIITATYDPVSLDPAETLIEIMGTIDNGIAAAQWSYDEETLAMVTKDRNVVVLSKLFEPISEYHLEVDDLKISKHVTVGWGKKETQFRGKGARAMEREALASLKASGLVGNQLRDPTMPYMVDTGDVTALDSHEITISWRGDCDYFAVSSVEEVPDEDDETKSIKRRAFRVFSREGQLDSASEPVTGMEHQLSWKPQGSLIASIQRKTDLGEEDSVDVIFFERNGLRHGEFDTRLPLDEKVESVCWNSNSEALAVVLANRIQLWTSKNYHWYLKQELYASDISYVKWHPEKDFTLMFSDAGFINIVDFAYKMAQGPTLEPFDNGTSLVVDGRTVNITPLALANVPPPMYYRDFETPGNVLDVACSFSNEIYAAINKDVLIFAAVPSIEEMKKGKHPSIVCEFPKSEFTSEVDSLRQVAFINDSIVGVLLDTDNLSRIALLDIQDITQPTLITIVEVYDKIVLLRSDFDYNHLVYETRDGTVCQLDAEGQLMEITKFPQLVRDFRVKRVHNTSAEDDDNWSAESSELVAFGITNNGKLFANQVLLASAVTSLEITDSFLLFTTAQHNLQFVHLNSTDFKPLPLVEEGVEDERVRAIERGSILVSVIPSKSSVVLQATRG

T2: FL GST-Elp1 (Saccharomyces cerevisiae (budding yeast), UniProt Q06706 1-1349)
T2 construct: Elp1, Elongator subunit of Saccharomyces cerevisiae, full length, expressed from the pETM30 vector; also called Elongator subunit Elp1
T2 sequence (looked up): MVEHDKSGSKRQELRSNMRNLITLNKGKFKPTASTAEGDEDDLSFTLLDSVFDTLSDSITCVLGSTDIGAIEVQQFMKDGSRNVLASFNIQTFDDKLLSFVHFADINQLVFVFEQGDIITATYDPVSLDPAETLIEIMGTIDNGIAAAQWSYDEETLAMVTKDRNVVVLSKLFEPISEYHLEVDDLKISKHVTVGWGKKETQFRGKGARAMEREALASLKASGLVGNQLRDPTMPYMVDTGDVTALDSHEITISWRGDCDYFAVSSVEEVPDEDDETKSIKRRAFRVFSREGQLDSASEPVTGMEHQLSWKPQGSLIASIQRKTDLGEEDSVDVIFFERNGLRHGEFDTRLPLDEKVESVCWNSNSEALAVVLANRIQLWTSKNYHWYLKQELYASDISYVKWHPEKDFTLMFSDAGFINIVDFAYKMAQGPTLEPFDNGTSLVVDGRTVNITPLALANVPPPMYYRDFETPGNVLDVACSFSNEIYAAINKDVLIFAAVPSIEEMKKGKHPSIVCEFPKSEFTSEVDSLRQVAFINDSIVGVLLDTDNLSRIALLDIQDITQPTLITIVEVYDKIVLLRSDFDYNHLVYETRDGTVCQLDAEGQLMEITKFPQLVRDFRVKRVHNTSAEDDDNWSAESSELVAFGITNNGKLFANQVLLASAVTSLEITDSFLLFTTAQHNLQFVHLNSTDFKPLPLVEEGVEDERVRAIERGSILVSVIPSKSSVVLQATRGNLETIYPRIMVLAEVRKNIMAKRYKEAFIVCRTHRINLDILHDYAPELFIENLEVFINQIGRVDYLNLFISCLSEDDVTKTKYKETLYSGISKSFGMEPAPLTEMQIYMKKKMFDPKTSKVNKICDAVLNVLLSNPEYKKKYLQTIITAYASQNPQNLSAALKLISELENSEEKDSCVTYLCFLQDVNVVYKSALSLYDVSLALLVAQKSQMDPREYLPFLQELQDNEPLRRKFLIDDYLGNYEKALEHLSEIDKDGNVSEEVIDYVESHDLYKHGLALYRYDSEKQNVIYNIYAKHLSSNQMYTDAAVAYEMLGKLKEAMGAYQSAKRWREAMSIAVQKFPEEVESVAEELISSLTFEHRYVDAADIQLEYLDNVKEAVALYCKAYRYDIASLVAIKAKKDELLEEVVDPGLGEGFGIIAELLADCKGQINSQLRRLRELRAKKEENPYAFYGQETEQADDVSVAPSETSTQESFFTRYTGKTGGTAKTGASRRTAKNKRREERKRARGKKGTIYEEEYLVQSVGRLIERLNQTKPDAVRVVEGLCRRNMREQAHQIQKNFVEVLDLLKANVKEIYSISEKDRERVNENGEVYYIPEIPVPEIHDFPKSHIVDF

T3: Hrr25 1-394, nonphosphorylated (Saccharomyces cerevisiae (budding yeast), UniProt P29295 1-394)
T3 construct: pETM11 with a TEV cleavage site after the tag; also called P/Q truncation; truncation variant lacking the P/Q-rich region; source: E. coli pRARE cells, purified (NiNTA, gel filtration)
T3 sequence (looked up): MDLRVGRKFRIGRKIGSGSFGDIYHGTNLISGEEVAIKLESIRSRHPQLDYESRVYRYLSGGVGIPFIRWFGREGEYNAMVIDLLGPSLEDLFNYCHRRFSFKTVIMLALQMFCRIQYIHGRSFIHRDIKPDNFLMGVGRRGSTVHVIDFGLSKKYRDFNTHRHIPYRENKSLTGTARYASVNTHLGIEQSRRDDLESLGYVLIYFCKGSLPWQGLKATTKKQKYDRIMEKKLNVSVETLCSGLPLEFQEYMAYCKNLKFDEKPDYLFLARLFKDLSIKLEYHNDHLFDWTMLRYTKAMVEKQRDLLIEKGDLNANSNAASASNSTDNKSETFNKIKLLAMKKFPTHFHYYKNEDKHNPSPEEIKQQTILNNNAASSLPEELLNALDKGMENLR

B1: Hrr25 1-394, autophosphorylated (domain or fragment, Saccharomyces cerevisiae (budding yeast), UniProt P29295 1-394, looked up)
chain: T3 sequence (looked up)
modifications: autophosphorylation sites mapped by MS: the sites detected in full length Hrr25 (Thr27, Ser31, Ser143, Thr144, Ser181, Ser191, Ser198) and in addition Ser41, Ser44, Ser60, Ser153, Thr161, Ser236, Thr239, Ser242, Tyr266, Ser317, Thr326, Ser330, Thr346, Ser376
notes: source: E. coli pRARE cells, purified (NiNTA, gel filtration); incubated with 1 mM ATP for 1 h at 30°C
B2: full-length (FL) yeast Hrr25, nonphosphorylated (enzyme, Saccharomyces cerevisiae (budding yeast), UniProt P29295 1-494, looked up)
chain: MDLRVGRKFRIGRKIGSGSFGDIYHGTNLISGEEVAIKLESIRSRHPQLDYESRVYRYLSGGVGIPFIRWFGREGEYNAMVIDLLGPSLEDLFNYCHRRFSFKTVIMLALQMFCRIQYIHGRSFIHRDIKPDNFLMGVGRRGSTVHVIDFGLSKKYRDFNTHRHIPYRENKSLTGTARYASVNTHLGIEQSRRDDLESLGYVLIYFCKGSLPWQGLKATTKKQKYDRIMEKKLNVSVETLCSGLPLEFQEYMAYCKNLKFDEKPDYLFLARLFKDLSIKLEYHNDHLFDWTMLRYTKAMVEKQRDLLIEKGDLNANSNAASASNSTDNKSETFNKIKLLAMKKFPTHFHYYKNEDKHNPSPEEIKQQTILNNNAASSLPEELLNALDKGMENLRQQQPQQQVQSSQPQPQPQQLQQQPNGQRPNYYPEPLLQQQQRDSQEQQQQVPMATTRATQYPPQINSNNFNTNQASVPPQMRSNPQQPPQDKPAGQSIWL
notes: cloned into pFastBacHT A with a TEV cleavage site after the tag; also called FL Hrr25; Hrr25 WT; source: Trichoplusia ni High Five cells, purified (NiNTA, gel filtration)
B3: full-length (FL) yeast Hrr25, autophosphorylated (enzyme, Saccharomyces cerevisiae (budding yeast), UniProt P29295 1-494, looked up)
chain: B2 chain
modifications: autophosphorylation sites mapped by MS: phospho-Thr27, Ser31, Ser143, Thr144, Ser181, Ser191, Ser198, Ser438, Thr449, Thr453, Ser461, Ser470, Ser491
notes: Hrr25, casein kinase 1 of Saccharomyces cerevisiae, full length, after autophosphorylation with ATP; also called pHrr25; autophosphorylated FL kinase; source: Trichoplusia ni High Five cells, purified (NiNTA, gel filtration); incubated with 1 mM ATP for 1 h at 30°C
B4: GST-tagged Sit4 (enzyme, Saccharomyces cerevisiae (budding yeast), UniProt P20604 1-311, looked up)
chain: MVSRGPDEWLETIKKCQALTENEMKQLCEMVKELLMEESNIQPVQTPVTVCGDIHGQFHDLLELFRTAGGFPDDINYIFLGDYVDRGYYSLETFTLLMCLKVKYPAKITLVRGNHESRQITQVYGFYEECLNKYGSTTVWKYCCQVFDFLTLAAIIDGKILCVHGGLSPEIRMLDQIRVLSRAQEVPHEGGFSDLLWSDPDNVEAWQVSPRGAGWLFGSKVAREFNHVNGLNLIARAHQLVMEGFKYHFPEKDVVTVWSAPNYCYRCGNVASVMKVDEDLEPTFKIFSAVPDDYIRESTANHNNQRAGYFL
notes: Sit4, phosphatase of Saccharomyces cerevisiae, expressed from the pETM30 vector; also called GST-Sit4; Sit4 phosphatase

Common to all, as to assay: pull-down; 20 μg GST-tagged bait mixed with equimolar Hrr25 variant, GST Sepharose 4B, 1 h at 4°C; 20 mM Tris pH 7.5, 150 mM NaCl, 0.5% Tween 20, 2 mM DTT, 2 mM MgCl2; three washes; SDS-PAGE and WB with Hrr25-specific antibodies
What all share (settings): both partners purified

Test [1] concerns the target T1, GST-Elp1 1-734.
In test [2] the target is T2, FL GST-Elp1.
The target of test [3] is B2.
Test [4] has as its target T3, Hrr25 1-394, nonphosphorylated.

This note sets out measurements from PMC12421383, “Autophosphorylation of conserved yeast and human casein kinase 1 isozymes regulates Elongator-dependent tRNA modifications” (Nucleic Acids Research, 2025).

With B1, the binding result in test [1] is recorded as “binds”.

Take B2: in test [2], the binding result was “binds”.

As to B3, the binding result in test [2] is “binds”.

B4: the binding result in test [3] and in test [4] was “binds” throughout.
